# Target: DPP9, short isoform (His-TEV-DPP9), co-purified with NLRP1ΔΔ (human), Q86TI2
# Test: cryo-EM structure
# Conditions: remark: other sources report otherwise
binder,measurement,value
"DPP9, short isoform (His-TEV-DPP9), co-purified with NLRP1ΔΔ, Q86TI2-1 1-863 (enzyme) MATTGTPTADRGDAAATDDPAARFQVQKHSWDGLRSIIHGSRKYSGLIVNKAPHDFQFVQKTDESGPHSHRLYYLGMPYGSRENSLLYSEIPKKVRKEALLLLSWKQMLDHFQATPHHGVYSREEELLRERKRLGVFGITSYDFHSESGLFLFQASNSLFHCRDGGKNGFMVSPMKPLEIKTQCSGPRMDPKICPADPAFFSFINNSDLWVANIETGEERRLTFCHQGLSNVLDDPKSAGVATFVIQEEFDRFTGYWWCPTASWEGSEGLKTLRILYEEVDESEVEVIHVPSPALEERKTDSYRYPRTGSKNPKIALKLAEFQTDSQGKIVSTQEKELVQPFSSLFPKVEYIARAGWTRDGKYAWAMFLDRPQQWLQLVLLPPALFIPSTENEEQRLASARAVPRNVQPYVVYEEVTNVWINVHDIFYPFPQSEGEDELCFLRANECKTGFCHLYKVTAVLKSQGYDWSEPFSPGEDEFKCPIKEEIALTSGEWEVLARHGSKIWVNEETKLVYFQGTKDTPLEHHLYVVSYEAAGEIVRLTTPGFSHSCSMSQNFDMFVSHYSSVSTPPCVHVYKLSGPDDDPLHKQPRFWASMMEAASCPPDYVPPEIFHFHTRSDVRLYGMIYKPHALQPGKKHPTVLFVYGGPQVQLVNNSFKGIKYLRLNTLASLGYAVVVIDGRGSCQRGLRFEGALKNQMGQVEIEDQVEGLQFVAEKYGFIDLSRVAIHGWSYGGFLSLMGLIHKPQVFKVAIAGAPVTVWMAYDTGYTERYMDVPENNQHGYEAGSVALHVEKLPNEPNRLLILHGFLDENVHFFHTNFLVSQLIRAGKPYQLQIYPNERHSIRCPESGEHYEVTLLHFLQEYL",stoichiometry N,2

# — publication PMC8299537
